Values belong to the binder of their own block, whether it stands above or below them.
What was measured:
Assay in all cases: two-hybrid library CCNG1;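 also: natural log of median RNA to DNA barcode read ratio; higher means stronger binding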
P4A-bP = target: T1, P4A-bP
T1 chain: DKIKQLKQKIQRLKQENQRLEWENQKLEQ

P3A-bP = target: T2, P3A-bP
T2 chain: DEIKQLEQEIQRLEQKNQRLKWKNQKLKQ

P7A-bP = target: T3, P7A-bP
T3 chain: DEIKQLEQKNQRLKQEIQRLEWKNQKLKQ

P9A-bP = target: T4, P9A-bP
T4 chain: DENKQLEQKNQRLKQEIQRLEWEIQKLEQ

P6A-bP = target: T5, P6A-bP
T5 chain: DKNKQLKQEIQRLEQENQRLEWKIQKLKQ

P8A-bP = target: T6, P8A-bP
T6 chain: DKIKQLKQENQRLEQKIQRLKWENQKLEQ

P5A-bP = target: T7, P5A-bP
T7 chain: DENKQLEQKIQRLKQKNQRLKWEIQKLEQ

4H477-bH = target: T8, 4H477-bH
T8 chain: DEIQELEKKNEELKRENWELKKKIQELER

4H3277-bH = target: T9, 4H3277-bH
T9 chain: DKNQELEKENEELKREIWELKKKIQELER

4H319-bH = target: T10, 4H319-bH
T10 chain: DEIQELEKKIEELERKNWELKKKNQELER

4H741-bH = target: T11, 4H741-bH
T11 chain: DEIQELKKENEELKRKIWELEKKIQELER

4H3057-bH = target: T12, 4H3057-bH
T12 chain: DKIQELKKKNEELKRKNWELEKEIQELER

4H2717-bH = target: T13, 4H2717-bH
T13 chain: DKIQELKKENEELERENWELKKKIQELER

4H40-bH = target: T14, 4H40-bH
T14 chain: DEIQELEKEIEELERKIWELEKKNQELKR

4H338-bA = target: T15, 4H338-bA
T15 chain: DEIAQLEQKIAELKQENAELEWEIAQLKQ

4H2692-bH = target: T16, 4H2692-bH
T16 chain: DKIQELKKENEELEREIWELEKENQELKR

4H2839-bH = target: T17, 4H2839-bH
T17 chain: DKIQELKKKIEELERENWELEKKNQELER

P7SH = target: T18, P7SH
T18 chain: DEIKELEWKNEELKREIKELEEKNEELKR

4H2915-bH = target: T19, 4H2915-bH
T19 chain: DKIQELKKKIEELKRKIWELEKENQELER

4H492-bH = target: T20, 4H492-bH
T20 chain: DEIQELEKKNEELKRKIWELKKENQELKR

4H2588-bH = target: T21, 4H2588-bH
T21 chain: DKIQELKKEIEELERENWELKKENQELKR

P8SH = target: T22, P8SH
T22 chain: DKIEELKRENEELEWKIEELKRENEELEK

interaction score (P4A-bP): 0.89
interaction score (P3A-bP): -0.848
interaction score (P7A-bP): -0.807
interaction score (P9A-bP): -0.126
interaction score (P6A-bP): -0.316
interaction score (P8A-bP): -0.641
interaction score (P5A-bP): -0.806
Binder: DEIKQLEQEIQRLEQKNQRLKWKNQKLKQ [P3A-bP]

interaction score (4H477-bH): -0.292
interaction score (4H3277-bH): -0.69
interaction score (4H319-bH): 0.617
interaction score (4H741-bH): 0.417
interaction score (4H3057-bH): 0.192
interaction score (4H2717-bH): -0.116
interaction score (4H40-bH): -0.884
interaction score (4H338-bA): 0.393
interaction score (4H2692-bH): 0.605
interaction score (4H2839-bH): 1.07
interaction score (P7SH): -0.241
interaction score (4H2915-bH): 1.07
interaction score (4H492-bH): -1.5
interaction score (4H2588-bH): 0.98
Binder: DKIQELKKEIEELERENWELKKENQELKR [4H2588-bH]

interaction score (P8SH): 2.08
interaction score (P7SH): -0.227
Binder: DEIKELEWKNEELKREIKELEEKNEELKR [P7SH]
